Target: Myc-tagged metabotropic glutamate receptor 5 (Myc-mGluR5) (UniProt P41594)
Assay: co-IP

Chain of UniProt P41594 (P41594 21-1212): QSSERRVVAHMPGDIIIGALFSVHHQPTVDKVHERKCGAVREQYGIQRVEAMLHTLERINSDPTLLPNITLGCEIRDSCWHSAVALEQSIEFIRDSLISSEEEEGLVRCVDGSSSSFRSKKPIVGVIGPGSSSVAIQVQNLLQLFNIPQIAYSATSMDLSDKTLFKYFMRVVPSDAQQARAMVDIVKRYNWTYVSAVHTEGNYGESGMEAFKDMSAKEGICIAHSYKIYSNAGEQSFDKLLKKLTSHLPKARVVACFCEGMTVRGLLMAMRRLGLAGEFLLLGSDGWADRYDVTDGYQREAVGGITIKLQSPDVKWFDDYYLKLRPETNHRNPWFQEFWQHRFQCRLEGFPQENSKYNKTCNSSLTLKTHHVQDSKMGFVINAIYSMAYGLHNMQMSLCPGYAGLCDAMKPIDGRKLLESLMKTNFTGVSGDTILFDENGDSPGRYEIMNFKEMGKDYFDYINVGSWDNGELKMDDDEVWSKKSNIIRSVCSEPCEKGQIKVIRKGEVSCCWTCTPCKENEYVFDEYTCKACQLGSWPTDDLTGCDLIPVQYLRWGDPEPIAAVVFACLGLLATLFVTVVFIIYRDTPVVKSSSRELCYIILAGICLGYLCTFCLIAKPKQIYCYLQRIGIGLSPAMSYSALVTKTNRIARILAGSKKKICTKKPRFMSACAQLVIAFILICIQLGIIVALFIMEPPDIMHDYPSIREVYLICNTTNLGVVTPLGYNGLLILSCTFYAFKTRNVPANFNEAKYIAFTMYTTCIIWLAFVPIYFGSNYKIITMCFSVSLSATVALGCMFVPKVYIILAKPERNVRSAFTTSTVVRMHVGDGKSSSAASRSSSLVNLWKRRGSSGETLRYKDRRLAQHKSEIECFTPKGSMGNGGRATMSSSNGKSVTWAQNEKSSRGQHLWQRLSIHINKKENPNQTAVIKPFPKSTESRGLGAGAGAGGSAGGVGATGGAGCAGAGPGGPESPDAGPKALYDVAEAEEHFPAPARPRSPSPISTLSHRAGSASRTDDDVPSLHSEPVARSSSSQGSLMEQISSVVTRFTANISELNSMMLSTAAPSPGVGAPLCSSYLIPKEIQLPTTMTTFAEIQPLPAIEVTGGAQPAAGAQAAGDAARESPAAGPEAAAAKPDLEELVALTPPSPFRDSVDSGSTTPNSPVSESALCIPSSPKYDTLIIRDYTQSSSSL

In the case of “cellular prion protein (PrP^C) (from UniProt P04156 23-230) (natural protein)”, the fold increase of the co-immunoprecipitate with Aβo against without Aβo is reported as > 2 fold.

From paper PMC5547898
